Patent US11344542B2, “Treatment of aging-associated disease with modulators of leukotriene A4 hydrolase” (Alkahest, Inc., priority 2018, dated 2022)

Columns and labels:
Type in all cases: in vivo, mouse
[1] = test system: microglia in the hippocampus; assay: Histology of microglia markers (Iba1, CD68) in the hippocampus of young mice
Description: (§1) Brains were collected following saline perfusion and separated by mid-sagittal slice with one-half drop fixed in freshly prepared 4% PFA. PFA was changed to 30% sucrose 24-48 hours later. A second change to 30% sucrose occurred 24 hours later. The second half was dissected into hippocampus and cortex and then snap frozen on dry ice.
(§2) Brain tissue was sectioned or lysed and analyzed for markers of neurogenesis and aging by standard histological and biochemical methods, including qRT-PCR, Western blot, ELISA, and immunohistochemistry.
The initial study in young, 8-week old wild-type (WT; C57BL/6) mice was repeated in a second cohort of mice with additional timepoints and readouts. Mice were homogenized between 3 treatment groups by body weight. Group 1 (Vehicle) was injected intravenously (IV) with PBS control 3 times per week for 6 weeks, group 2 (LTA4H Pulse) with recombinant human LTA4H protein daily for 7 consecutive days, and group 3 (LTA4H Continuous) with recombinant human LTA4H protein 3 times per week for 6 weeks. In week 4 after the initiation of dosing, mice in all treatment groups were injected IP with BrdU (5-bromo-2′-deoxyuridine) formulated in PBS (phosphate buffered saline) at a final concentration of 10 mg/mL dosed at 150 mg/kg for 5 days. […]

[2] = test system: 8-week old (young) wild-type (C57BL/6) mice; assay: Open field test in young mice treated with recombinant human LTA4H protein
Description: The open field test was used to evaluate general locomotor activity and exploratory behavior in a novel environment. It consisted of a square arena (50 cm×50 cm). Mice were brought to the experimental room for at least 30 min of acclimation to the experimental room conditions (dim lighting) prior to testing. Mice were placed in the center of the arena and tracked using automated software (CleverSys or San Diego Instruments) for 15 min. Total distance traveled, average velocity, and time spent in the peripheral and center zones were analyzed.
Recombinant human LTA4H (Bio-techne, 4008-SN) was buffer-exchanged into sterile PBS and dosed at 4.6 ug/150 uL by tail vein i.v. injection. SC-57461A (Cayman Chemical, 423169-68) stock solution was prepared at 10 mg/mL in DMSO. Stock solution was diluted into sterile PBS immediately prior to p.o. dosing to a final concentration of 10% DMSO and 1 mg/mL SC-57461A. Mice were p.o. dosed at 5 mg/kg. CP-105,696 (Sigma, PZ0363), Pinostilbene hydrate (Sigma, SML0098), and Montelukast (Cayman Chemical, 10008318) stock solutions were prepared at 30 mg/mL in EtOH/Solutol. Stock solutions were diluted into sterile PBS immediately prior to p.o. dosing to a final concentration of 10% EtOH and […] inhibitor. Administration to mice was performed p.o. at a dose of 10 mg/kg. Vehicle was 10% EtOH/Solutol and was dosed p.o. at a volume of 150 uL.
(§3) Young, 8-week old wild-type (WT; C57BL/6) mice were homogenized between groups by body weight. Following group determination, mice were injected intraperitoneally (IP) with BrdU (5-bromo-2′-deoxyuridine) formulated in PBS (phosphate buffered saline) at a final concentration of 10 mg/mL dosed at 150 mg/kg for 5 days Immediately following the BrdU dosing, group 1 was injected intravenously (IV) with PBS control and group 2 with recombinant human LTA4H protein daily for 7 consecutive days. One week after the completion of LTA4H administration, in week 3, mice in both treatment groups were injected IP with EdU (5-ethynyl-2′-deoxyuridine) formulated in PBS at a final concentration of 10 mg/mL and dosed at 50 mg/kg for 5 days. Behavioral assays were executed in week 5 and 6, and animals were sacrificed, and tissues collected immediately after completion of behavior testing in week 6. FIG. 3 depicts the treatment paradigm and injection timing for the study.
(§4) The initial study in young, 8-week old wild-type (WT; C57BL/6) mice was repeated in a second cohort of mice with additional timepoints and readouts. Mice were homogenized between 3 treatment groups by body weight. Group 1 (Vehicle) was injected intravenously (IV) with PBS control 3 times per week for 6 weeks, group 2 (LTA4H Pulse) with recombinant human LTA4H protein daily for 7 consecutive days, and group 3 (LTA4H Continuous) with recombinant human LTA4H protein 3 times per week for 6 weeks. In week 4 after the initiation of dosing, mice in all treatment groups were injected IP with BrdU (5-bromo-2′-deoxyuridine) formulated in PBS (phosphate buffered saline) at a final concentration of 10 mg/mL dosed at 150 mg/kg for 5 days. Behavioral assays were executed in week 5 and 6, and animals were sacrificed, and tissues collected immediately after completion of behavior testing in week 6. FIG. 10 depicts the treatment paradigm and injection timing for the study.

[3] = test system: granule cell layer of the dentate gyrus; assay: Histology of labeled proliferating cells (EdU, Ki67, BrdU/DCX) in the dentate gyrus of young mice; settings: for number of Ki67-labeled cells within the granule cell layer of the dentate gyrus: study week 6; for number of BrdU and DCX co-labeled cells within the granule cell layer of the dentate gyrus: BrdU in week 4
Description: as §1, §2, §3, §4

[4] = paradigm 1: IV daily for 7 consecutive days, vs PBS, tested week 5-6
[5] = paradigm 2: continuous dosing, IV 3 times per week for 6 weeks

B1: recombinant human LTA4H: Recombinant human LTA4H (Bio-techne, 4008-SN), leukotriene A4 hydrolase enzyme, dosed by tail vein i.v. injection (protein, UniProt P09960 2-611, looked up)
Leukotriene A-4 hydrolase: PEIVDTCSLASPASVCRTKHLHLRCSVDFTRRTLTGTAALTVQSQEDNLRSLVLDTKDLTIEKVVINGQEVKYALGERQSYKGSPMEISLPIALSKNQEIVIEISFETSPKSSALQWLTPEQTSGKEHPYLFSQCQAIHCRAILPCQDTPSVKLTYTAEVSVPKELVALMSAIRDGETPDPEDPSRKIYKFIQKVPIPCYLIALVVGALESRQIGPRTLVWSEKEQVEKSAYEFSETESMLKIAEDLGGPYVWGQYDLLVLPPSFPYGGMENPCLTFVTPTLLAGDKSLSNVIAHEISHSWTGNLVTNKTWDHFWLNEGHTVYLERHICGRLFGEKFRHFNALGGWGELQNSVKTFGETHPFTKLVVDLTDIDPDVAYSSVPYEKGFALLFYLEQLLGGPEIFLGFLKAYVEKFSYKSITTDDWKDFLYSYFKDKVDVLNQVDWNAWLYSPGLPPIKPNYDMTLTNACIALSQRWITAKEDDLNSFNATDLKDLSSHQLNEFLAQTLQRAPLPLGHIKRMQEVYNFNAINNSEIRFRWLRLCIQSKWEDAIPLALKMATEQGRMKFTRPLFKDLAAFDKSHDQAVRTYQEHKASMHPVTAMLVGKDLKVD
Question: B1 was tested. Which “average number of Iba1-labeled cells in the hippocampus” value ([1]; paradigm 2: pulse dosing, relative to vehicle PBS) did it give?
Answer: significant increase

Question: What about the “average number of CD68-labeled cells in the hippocampus” value ([1]; paradigm 3: 10 days following pulse dosing (IV daily, 7 days), relative to PBS) of the same molecule?
Answer: significant increase

Question: And the “anxiety as measured by percent time spent in periphery or center of the open field” value ([2]; paradigm 1: IV daily for 7 consecutive days, vs PBS)?
Answer: not affected

Question: What about the “average velocity in open field” value [2, 4] of the same molecule?
Answer: no change

Question: What about the “total distance travelled in open field” value [2, 4] of the same molecule?
Answer: no change

Question: What about the “average velocity in open field” value [2, 5] of the same molecule?
Answer: significant reduction

Question: What about the “distance traveled in open field” value [2, 5] of the same molecule?
Answer: significant reduction

Question: And the “anxiety as measured by percent time spent in periphery or center of the open field” value ([2]; paradigm 2: either dosing paradigm (pulse or continuous))?
Answer: not affected

Question: And the “general locomotion as measured by total distance travelled and average velocity” value ([2]; paradigm 2: pulse dosing, IV daily for 7 consecutive days)?
Answer: impaired with continuous dosing of LTA4H, but not with pulse dosing

Question: And the “number of EdU-labeled cells within the granule cell layer of the dentate gyrus” value ([3]; paradigm 1, EdU in week 3, vs PBS)?
Answer: significant decrease

Question: And the “number of Ki67-labeled cells within the granule cell layer of the dentate gyrus” value ([3]; paradigm 1, vs PBS, listed as human recombinant LTA4H protein)?
Answer: significant decrease

Question: And the “number of Ki67-labeled cells within the granule cell layer of the dentate gyrus” value ([3]; paradigm 1, vs PBS, listed as recombinant LTA4H)?
Answer: fewer Ki67 labeled cells

Question: And the “number of BrdU and DCX co-labeled cells within the granule cell layer of the dentate gyrus” value ([3]; paradigm 2: continuous dosing)?
Answer: significant decrease

Question: And the “number of BrdU and DCX co-labeled cells within the granule cell layer of the dentate gyrus” value ([3]; paradigm 2: pulse dosing)?
Answer: statistical trend towards a decrease
